Source: the supplement of paper PMC10266784

B1: library; numbered along this chain (parent)
chain: MAAAAAAAAEQQSSNGPVKKSMREKAVERRSVNKEHNSNFKAGYIPIDEDRLHKTGLRGRKGNLAICVIILLFILAVINLIITLVIWAVIRIGPNGCDSMEFHESGLLRFKQVSDMGVIHPLYKSTVGGRRNENLVITGNNQPIVFQQGTTKLSVENNKTSITSDIGMQFFDPRTQNILFSTDYETHEFHLPSGVKSLNVQKASTERITSNATSDLNIKVDGRAIVRGNEGVFIMGKTIEFHMGGNMELKAENSIILNGSVMVSTTRLPSSSSGDQLGSGDWVRYKLCMCADGTLFKVQVTSQNMGCQISDNPCGNTH

Variants of: B1
Experiment: SGCB cell-surface expression functional score (HA stain, bin4 vs bin1, normalised to synonymous) (log10 ratio); higher = more cell-surface SGCB (functional)
Method in brief: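 Human beta-sarcoglycan, tagged with HA and fused to YFP, was built into codon-saturation libraries and delivered by lentivirus at MOI <0.1 into HEK293 cells that stably express alpha-, gamma- and delta-sarcoglycan. After 72 hours, YFP-positive cells were sorted and grown for 5–7 days, then stained on ice with Alexa Fluor 647 anti-HA, fixed, sorted into four 5% intensity bins and amplicon-sequenced. Each variant's functional score is the log ratio of its frequency in the highest bin to that in the lowest bin, taken as the median across codons and transductions. Transductions were done in duplicate, and synonymous variants were scaled per section to mean 0, SD 0.5.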

Point of comparison: MAAAAAAAAEQQSSNGPVKKSMREKAVERRSVNKEHNSNFKAGYIPIDEDRLHKTGLRGRKGNLAICVIILLFILAVINLIITLVIWAVIRIGPNGCDSMEFHESGLLRFKQVSDMGVIHPLYKSTVGGRRNENLVITGNNQPIVFQQGTTKLSVENNKTSITSDIGMQFFDPRTQNILFSTDYETHEFHLPSGVKSLNVQKASTERITSNATSDLNIKVDGRAIVRGNEGVFIMGKTIEFHMGGNMELKMENSIILNGSVMVSTTRLPSSSSGDQLGSGDWVRYKLCMCADGTLFKVQVTSQNMGCQISDNPCGNTH [A251M], “SGCB cell-surface expression functional score (log10)” value 0. Against it:
- MAAAAAAAAEQQSSNGPVKKSMREKAVERRSVNKEHNSNFKAGYIPIDEDRLHKTGLRGRKGNLAICVIILLFILAVINLIITLVIWAVIRIGPNGCDSMEFHESGLLRFKQVSDMGVIHPLYKSTVGGRRNENLVITGNNQPIVFQQGTTKLSVENNKTSITSDIGMQFFDPRTQNILFSTDYETHEFHLPSGVKSLNVQKASTERITSNATSDLNIKVDGRAIVRGNEGVFIMGKTIEFHMGGNMELKHENSIILNGSVMVSTTRLPSSSSGDQLGSGDWVRYKLCMCADGTLFKVQVTSQNMGCQISDNPCGNTH [A251H] — higher, 0.44
- MAAAAAAAAEQQSSNGPVKKSMREKAVERRSVNKEHNSNFKAGYIPIDEDRLHKTGLRGRKGNLAICVIILLFILAVINLIITLVIWAVIRIGPNGCDSMEFHESGLLRFKQVSDMGVIHPLYKSTVGGRRNENLVITGNNQPIVFQQGTTKLSVENNKTSITSDIGMQFFDPRTQNILFSTDYETHEFHLPSGVKSLNVQKASTERITSNATSDLNIKVDGRAIVRGNEGVFIMGKTIEFHMGGNMELKPENSIILNGSVMVSTTRLPSSSSGDQLGSGDWVRYKLCMCADGTLFKVQVTSQNMGCQISDNPCGNTH [A251P] — within 0.2 log units, 0.04
- MAAAAAAAAEQQSSNGPVKKSMREKAVERRSVNKEHNSNFKAGYIPIDEDRLHKTGLRGRKGNLAICVIILLFILAVINLIITLVIWAVIRIGPNGCDSMEFHESGLLRFKQVSDMGVIHPLYKSTVGGRRNENLVITGNNQPIVFQQGTTKLSVENNKTSITSDIGMQFFDPRTQNILFSTDYETHEFHLPSGVKSLNVQKASTERITSNATSDLNIKVDGRAIVRGNEGVFIMGKTIEFHMGGNMELKFENSIILNGSVMVSTTRLPSSSSGDQLGSGDWVRYKLCMCADGTLFKVQVTSQNMGCQISDNPCGNTH [A251F] — lower, -0.98
- MAAAAAAAAEQQSSNGPVKKSMREKAVERRSVNKEHNSNFKAGYIPIDEDRLHKTGLRGRKGNLAICVIILLFILAVINLIITLVIWAVIRIGPNGCDSMEFHESGLLRFKQVSDMGVIHPLYKSTVGGRRNENLVITGNNQPIVFQQGTTKLSVENNKTSITSDIGMQFFDPRTQNILFSTDYETHEFHLPSGVKSLNVQKASTERITSNATSDLNIKVDGRAIVRGNEGVFIMGKTIEFHMGGNMELKQENSIILNGSVMVSTTRLPSSSSGDQLGSGDWVRYKLCMCADGTLFKVQVTSQNMGCQISDNPCGNTH [A251Q] — lower, -2.02
- MAAAAAAAAEQQSSNGPVKKSMREKAVERRSVNKEHNSNFKAGYIPIDEDRLHKTGLRGRKGNLAICVIILLFILAVINLIITLVIWAVIRIGPNGCDSMEFHESGLLRFKQVSDMGVIHPLYKSTVGGRRNENLVITGNNQPIVFQQGTTKLSVENNKTSITSDIGMQFFDPRTQNILFSTDYETHEFHLPSGVKSLNVQKASTERITSNATSDLNIKVDGRAIVRGNEGVFIMGKTIEFHMGGNMELKLENSIILNGSVMVSTTRLPSSSSGDQLGSGDWVRYKLCMCADGTLFKVQVTSQNMGCQISDNPCGNTH [A251L] — lower, -1.06
- MAAAAAAAAEQQSSNGPVKKSMREKAVERRSVNKEHNSNFKAGYIPIDEDRLHKTGLRGRKGNLAICVIILLFILAVINLIITLVIWAVIRIGPNGCDSMEFHESGLLRFKQVSDMGVIHPLYKSTVGGRRNENLVITGNNQPIVFQQGTTKLSVENNKTSITSDIGMQFFDPRTQNILFSTDYETHEFHLPSGVKSLNVQKASTERITSNATSDLNIKVDGRAIVRGNEGVFIMGKTIEFHMGGNMELKGENSIILNGSVMVSTTRLPSSSSGDQLGSGDWVRYKLCMCADGTLFKVQVTSQNMGCQISDNPCGNTH [A251G] — within 0.2 log units, 0.05
- MAAAAAAAAEQQSSNGPVKKSMREKAVERRSVNKEHNSNFKAGYIPIDEDRLHKTGLRGRKGNLAICVIILLFILAVINLIITLVIWAVIRIGPNGCDSMEFHESGLLRFKQVSDMGVIHPLYKSTVGGRRNENLVITGNNQPIVFQQGTTKLSVENNKTSITSDIGMQFFDPRTQNILFSTDYETHEFHLPSGVKSLNVQKASTERITSNATSDLNIKVDGRAIVRGNEGVFIMGKTIEFHMGGNMELKKENSIILNGSVMVSTTRLPSSSSGDQLGSGDWVRYKLCMCADGTLFKVQVTSQNMGCQISDNPCGNTH [A251K] — lower, -1.77
- MAAAAAAAAEQQSSNGPVKKSMREKAVERRSVNKEHNSNFKAGYIPIDEDRLHKTGLRGRKGNLAICVIILLFILAVINLIITLVIWAVIRIGPNGCDSMEFHESGLLRFKQVSDMGVIHPLYKSTVGGRRNENLVITGNNQPIVFQQGTTKLSVENNKTSITSDIGMQFFDPRTQNILFSTDYETHEFHLPSGVKSLNVQKASTERITSNATSDLNIKVDGRAIVRGNEGVFIMGKTIEFHMGGNMELKNENSIILNGSVMVSTTRLPSSSSGDQLGSGDWVRYKLCMCADGTLFKVQVTSQNMGCQISDNPCGNTH [A251N] — higher, 0.23
- MAAAAAAAAEQQSSNGPVKKSMREKAVERRSVNKEHNSNFKAGYIPIDEDRLHKTGLRGRKGNLAICVIILLFILAVINLIITLVIWAVIRIGPNGCDSMEFHESGLLRFKQVSDMGVIHPLYKSTVGGRRNENLVITGNNQPIVFQQGTTKLSVENNKTSITSDIGMQFFDPRTQNILFSTDYETHEFHLPSGVKSLNVQKASTERITSNATSDLNIKVDGRAIVRGNEGVFIMGKTIEFHMGGNMELKIENSIILNGSVMVSTTRLPSSSSGDQLGSGDWVRYKLCMCADGTLFKVQVTSQNMGCQISDNPCGNTH [A251I] — lower, -0.87
